Source: patent publication US20260242489A1 (HUAHUI HEALTH, published 2026)

Assays:
[1] = target: T1, hEGFR ECR-His6-Avi-Biotin (human, UniProt P00533 25-642, biotinylated on the Avi tag using BirA ligase); experiment: phage ELISA: biotinylated hEGFR ECR captured on streptavidin plate, phage display scFv titrated, anti-M13-HRP; pH 7.4
T1 construct: also called WT hEGFR ECR; human EGFR ECD; not shown: His6-Avi tag

[2] = target: T1, hEGFR ECR-His6-Avi-Biotin; experiment: phage ELISA: biotinylated hEGFR ECR captured on streptavidin plate, phage display scFv titrated, anti-M13-HRP; pH 6.0
[3] = target: T1, hEGFR ECR-His6-Avi-Biotin; experiment: ELISA: hEGFR ECR on plate, IgG1 titrated, anti-hFc-HRP; pH 7.4 [table]
[4] = target: T1, hEGFR ECR-His6-Avi-Biotin; experiment: IgG1 ELISA on hEGFR ECR, pH 6.5 and pH 7.4
[5] = target: T1, hEGFR ECR-His6-Avi-Biotin; experiment: ELISA: hEGFR ECR on plate, IgG1 titrated, anti-hFc-HRP; pH 6.5 [table]
[6] = target: T2, mEGFR ECR (His6-Avi-tagged) (mouse, UniProt Q01279 25-644); experiment: SPR (Biacore T200), mEGFR ECR analyte, steady-state affinity model
T2 construct: also called mouse EGFR; not shown: His6-Avi tag

[7] = target: T1, hEGFR ECR-His6-Avi-Biotin; experiment: SPR (Biacore T200), antibody captured, hEGFR ECR analyte, steady-state affinity model, pH 6.5
Method: (§1) Kinetics analyses of the binding of anti-EGFR antibodies to the ECR of mouse and human EGFR were performed on a Biacore T200 instrument (Biacore, GE Healthcare). Anti-hFc Ab or protein A/G (Thermo Fisher Scientific) was covalently attached to the surface of a CM5 sensor chip using an amine coupling kit (GE Healthcare). […] Binding kinetics were evaluated using a 1:1 Langmuir binding model. The dissociation constant (KD) values were calculated with a steady-state affinity model using the Biacore T200 evaluation software.

[8] = target: T3, human EGFR, full-length, on A-431 cells or CT26-hEGFR cells (human, UniProt P00533 25-1210); experiment: flow cytometry on CT26-hEGFR cells, pH 7.4
T3 construct: A-431 cells (own EGFR) and mouse CT26 cells transfected with human EGFR; the cell line is named under assay
Method: (§2) Antibody binding to cells was then assessed based on the fluorescence intensity for FITC.

[9] = target: T1, hEGFR ECR-His6-Avi-Biotin; experiment: SPR (Biacore T200), hEGFR ECR analyte, steady-state affinity model
Method: as §1

[10] = target: T3, human EGFR, full-length, on A-431 cells …; experiment: flow cytometry on CT26-hEGFR cells, pH 6.5
Method: as §2

[11] = target: T1, hEGFR ECR-His6-Avi-Biotin; experiment: competition ELISA: hEGFR ECR on plate, IgG1 titrated in a mixture with EGF-mFc, bound EGF-mFc detected with anti-mFc-HRP; pH 6.5 [table]
[12] = target: T3, human EGFR, full-length, on A-431 cells …; experiment: flow cytometry on CT26-hEGFR cells
Method: as §2

[13] = target: T3, human EGFR, full-length, on A-431 cells …; experiment: flow cytometry on A-431 cells, pH 6.5
Method: as §2

[14] = target: T3, human EGFR, full-length, on A-431 cells …; experiment: flow cytometry on A-431 cells, pH 7.4
Method: as §2

[15] = target: T2, mEGFR ECR (His6-Avi-tagged); experiment: SPR (Biacore T200), antibody captured, mEGFR ECR analyte, steady-state affinity model, pH 7.4
Method: as §1

[16] = target: T2, mEGFR ECR (His6-Avi-tagged); experiment: SPR (Biacore T200), antibody captured, mEGFR ECR analyte, steady-state affinity model, pH 6.5
Method: as §1

[17] = target: T1, hEGFR ECR-His6-Avi-Biotin; experiment: competition ELISA: hEGFR ECR on plate, IgG1 titrated in a mixture with EGF-mFc, bound EGF-mFc detected with anti-mFc-HRP; pH 7.4 [table]
[18] = target: T3, human EGFR, full-length, on A-431 cells …; experiment: flow cytometry on A-431 cells
Method: as §2

[19] = target: T1, hEGFR ECR-His6-Avi-Biotin; experiment: SPR (Biacore T200), antibody captured, hEGFR ECR analyte, steady-state affinity model, pH 7.4
Method: as §1

[20] = target: T1, hEGFR ECR-His6-Avi-Biotin; experiment: ELISA: hEGFR ECR on plate, IgG1 titrated, anti-hFc-HRP; pH 7.4 [right panel]
From the text: (§3) Then antibody-hEGFR binding was detected with an HRP-conjugated anti-hFc secondary antibody.

[21] = target: T1, hEGFR ECR-His6-Avi-Biotin; experiment: ELISA: hEGFR ECR on plate, IgG1 titrated, anti-hFc-HRP; pH 6.0 [right panel]
From the text: as §3

[22] = target: T1, hEGFR ECR-His6-Avi-Biotin; experiment: phage ELISA: hEGFR ECR on plate, phage display Fab titrated, anti-M13-HRP; EC50 at pH 7.4 over EC50 at pH 6.5 [table]

B1: 11C04 (scFv, part only; not given: scFv linker, domain order, phage fusion, V domains shown, not shown: another chain or arm of the molecule; large carriers; small tags and cut ends)
VH: EVQLVQSGAEVKKPGASVKVSCKASGYTFTSYYMHWVRQAPGQGLEWMGIINPSGGSTSYAQKFQGRVTMTRDTSTSTVYMELSSLRSEDTAVYYCARDLEMAYYDILYGMDVWGQGTLVTVSS
VL: QSALTQPASVSGSAGQSITISCTGTTSDIGRYDYVSWYQQHPGQVPKLMIYDVSNRPSGVSDRFSGSKSGNTASLTISGLQTEDEADYYCSSYTTSGTRVFGGGTKLTVL
EC50 (read off the curve) [1]: 1e+10 cfu/ml
EC50 (read off the curve) [2]: 1e+10 cfu/ml

B2: G532^V (human IgG1 form) (antibody, V domains shown)
VH: QVQLVQSGAEVKRPGSSVKVSCKASGGISDGSAISWVRQAPGQGLEWMGGIRWWGGITNYAQKFQGRVTITADESTSTAYMELSSLRSEDTAVYYCARDSSLGYYDYFDYWGQGTLVTVSS
VL: QPVLTQPPSVSAAPGQTARITCGGNNIGEKHVQWYQQRPGQAPVLVIYYDSTRPSGIPERFSGSNSGNTAALTINSVEAGDEADYYCQAWDDYDPVVFGGGTQLTVLG
notes: G532 with LCDR1 E32H and LCDR2 D52S, D53T
EC50 [3]: 0.517 nM
EC50 ratio (pH 7.4/pH 6.5) [4]: 1.64
fold lower binding pH-dependency than G532 [4]: ~5 fold
EC50 [5]: 0.316 nM

B3: G532^Ctrl (human IgG1 form) (antibody, V domains shown)
VH: QVQLVQSGAEVKRPGSSVKVSCKASGGISDGSAISWVRQAPGQGLEWMGGIRWWGGITNYAQKFQGRVTITADESTSTAYMELSSLRSEDTAVYYCARDSSLGYYDYFDYWGQGTLVTVSS
VL: QPVLTQPPSVSAAPGQTARITCGGNNIGENHVQWYQQRPGQAPVLVIYYDSTRPSGIPERFSGSNSGNTAALTINSVEAGDEADYYCQAWDDYDPVVFGGGTQLTVLG
notes: G532^V with LCDR1 K31N; also called non-pH-dependent variant of G532
EC50 [3]: 0.635 nM
EC50 ratio (pH 7.4/pH 6.5) [4]: 0.759
KD ratio (pH 7.4/6.5) [6]: 0.586
Kd [7]: 406 nM
EC50 [8]: 0.587 nM
KD ratio (pH 7.4/6.5) [9]: 0.599
EC50 [10]: 1.25 nM
IC50 [11]: 39.5 nM
EC50 ratio (pH 7.4/6.5) [12]: 0.469
EC50 [13]: 0.771 nM
EC50 [14]: 0.554 nM
Kd [15]: 743 nM
EC50 [5]: 0.837 nM
Kd [16]: 1270 nM
IC50 [17]: 61.8 nM
EC50 ratio (pH 7.4/6.5) [18]: 0.718
Kd [19]: 243 nM

B4: G532 (human IgG1 form) (antibody, V domains shown)
VH: QVQLVQSGAEVKRPGSSVKVSCKASGGISDGSAISWVRQAPGQGLEWMGGIRWWGGITNYAQKFQGRVTITADESTSTAYMELSSLRSEDTAVYYCARDSSLGYYDYFDYWGQGTLVTVSS
VL: QPVLTQPPSVSAAPGQTARITCGGNNIGEKEVQWYQQRPGQAPVLVIYYDDDRPSGIPERFSGSNSGNTAALTINSVEAGDEADYYCQAWDDYDPVVFGGGTQLTVLG
EC50 [3]: 5.58 nM
EC50 ratio (pH 7.4/pH 6.5) [4]: 8.08
KD ratio (pH 7.4/6.5) [6]: 3.31
Kd [7]: 294 nM
EC50 [8]: 15.2 nM
KD ratio (pH 7.4/6.5) [9]: 13.3
EC50 [10]: 0.787 nM
IC50 [11]: 20.6 nM
EC50 ratio (pH 7.4/6.5) [12]: 19.4
EC50 [13]: 0.528 nM
EC50 [14]: 13.7 nM
Kd [15]: 1810 nM
EC50 [5]: 0.69 nM
Kd [16]: 547 nM
EC50 ratio (pH 7.4/6.5) [18]: 26
Kd [19]: 3900 nM

B5: 11A10 (full-length human IgG1 form) (antibody, V domains shown)
VH: EVQLVQSGAEVKKPGESLMISCKGSGYSFTNHWIGWVRQMPGKGPEWMGIINPRDSDARYSPSFRGQVTFSVDRSTNTAYLQWTSLKPSDTGMYFCARRDIVVVPAATPSYYYYGMDVWGQGTTVTVSS
VL: DIQLTQSPSSLSASVGDSVTITCRPRQSSSRFVNWYQHKPGKAPKLLISNASDLQHGVPSRFSGRGAGTEFTLTIDSLQPDDVATYYCEQSYRFPHMFGQGTKVEIKR
EC50 [20]: 58.9 nM
EC50 [21]: 1.36 nM

B6: 14C07 (phage display scFv form) (scFv, V domains shown)
VH: QVQLVQSGAEVKRPGSSVKVSCKASGGTFSSYAISWVRQAPGQGLEWMGGIIPIFGTANYAQKFQGRVTITADESTSTAYMELSSLRSEDTAVYYCARDSSSGWYDYFDYWGQGTLVTVSS
VL: QPVLTQPPSVSAAPGAMARITCESPDIGSKSVQWYQQRPGQAPILVIYYDDDRPSGIPERFSGSNSGNTAALTINWVEPEDEADYYCQAWDDSDPVVFGGGTQLTVL
EC50 (read off the curve) [2]: ~1e+11 cfu/ml

B7: WT G5V2 (phage display Fab form) (Fab, V domains shown)
VH: QVQLVQSGAEVKRPGSSVKVSCKASGGISDGSAISWVRQAPGQGLEWMGGIYFFNGNTNYAQKFQGRVTITADESTSTAYMELSSLRSEDTAVYYCARDSSLGYYDYFDYWGQGTLVTVSS
VL: QPVLTQPPSVSAAPGQTARITCGGNNIGEKYVQWYQQRPGQAPVLVIYYDDDRPSGIPERFSGSNSGNTAALTINSVEAGDEADYYCQAWDDYDPVVFGGGTQLTVL
EC50 ratio (pH 7.4/pH 6.5) [22]: 1.21

B8: G5V2 Y32H (phage display Fab form) (Fab, V domains shown)
VH: QVQLVQSGAEVKRPGSSVKVSCKASGGISDGSAISWVRQAPGQGLEWMGGIYFFNGNTNYAQKFQGRVTITADESTSTAYMELSSLRSEDTAVYYCARDSSLGYYDYFDYWGQGTLVTVSS
VL: QPVLTQPPSVSAAPGQTARITCGGNNIGEKHVQWYQQRPGQAPVLVIYYDDDRPSGIPERFSGSNSGNTAALTINSVEAGDEADYYCQAWDDYDPVVFGGGTQLTVL
notes: Kabat numbering (31st letter by plain count)
EC50 ratio (pH 7.4/pH 6.5) [22]: 0.61
